Laboratory results reported in the DeepSol protein solubility set.

test: soluble on expression in E. coli; label from the status in PepcDB or PDB records

Sequence	soluble on expression in E. coli
MNNSLSDKYNSSSTTLCSSVHAESCPTDTEDAIIRNIKLPGFRGNISRALSQKSNSPSGCRTPTPKTAPPSYEQFQVLRRNSMKSSVQPQRNGILSPAPPVPTSSRANTITVNGAHVQQAMNRIDMSTDSANTILRSPYSTRSDSITSVDSGQCSGDQIERRSNCSTRQESKDDDDTGMPSYARMASTMDHVLRTSSALYTLLSSALDPATCRDLLAKSSVFIQLLESSPCTNYLPKTEMARLKMNVQELQKNRDKGIIDMNNMTNFFAILLRKSIESVLLVFVRIISKNLCESNGKDRLTPICLEHLIHICLFGDELCIEAIQKGCISSVIRIMKNDQPQENTLRFLLRTLAVLCGVSKGALALLTQGGLDLVIDRLLSISSSICSVEAAGILTQLTNPQSAFIRLNHVEPIISRLLDLIDQCKSGDSLLLATAALNNVTLQNPNGVDIMYRNNSIRRLISAYNRENCATVFVQEQIVTAFSRLAARHLDHQMVDQNAIPVLLEFLSLTHPIHADYCRRIRYKAAVCIGTLANSEIGLKALYGNNAYAILSNVLYDDNNSSNPFNMICNNIRTKLESKYQSESAV	not soluble
MSLQKELARNQHLAERLLETEESVRRDVARELHDDIGQTITAIRTQAGIVQRLAADNASVKQSGQLIEQLSLGVYDAVRRLLGRLRPRQLDDLTLEQAIRSLMREMELEGRGIVSHLEWRIEESALSENQRVTLFRVCQEGLNNIVKHADASAVTLQGWLQDERLMLVIEDDGSGLPPGSGQQGFGLTGMRERVTALGGTLTISCLHGTRVSVSLPQRYVEGHHHHHH	soluble
GPGSMFSCCLRSLARGREPQVLGTAVPSFYNFPYRAQDVLHLYRDLLKLIYQHPPQERADLLFRLRNEFHSRRHLSAPKLISAAIRRGEGILNVQRGLMESRSVRARAVASRERGAQSVDGLWDQLQIVSGHMLPGLRNFSASRGLSRGSYVRQATTQAVYSRRK	not soluble
MTLRAAVFDLDGVLALPAVFGVLGRTEEALALPRGLLNDAFQKGGPEGATTRLMKGEITLSQWIPLMEENCRKCSETAKVCLPKNFSIKEIFDKAISARKINRPMLQAALMLRKKGFTTAILTNTWLDDRAERDGLAQLMCELKMHFDFLIESCQVGMVKPEPQIYKFLLDTLKASPSEVVFLDDIGANLKPARDLGMVTILVQDTDTALKELEKVTGIQLLNTPAPLPTSCNPSDMSHGYVTVKPRVRLHFVELGSGPAVCLCHGFPESWYSWRYQIPALAQAGYRVLAMDMKGYGESSAPPEIEEYCMEVLCKEMVTFLDKLGLSQAVFIGHDWGGMLVWYMALFYPERVRAVASLNTPFIPANPNMSPLESIKANPVFDYQLYFQEPGVAEAELEQNLSRTFKSLFRASDESVLSMHKVCEAGGLFVNSPEEPSLSRMVTEEEIQFYVQQFKKSGFRGPLNWYRNMERNWKWACKSLGRKILIPALMVTAEKDFVLVPQMSQHMEDWIPHLKRGHIEDCGHWTQMDKPTEVNQILIKWLDSDARNPPVVSKM	soluble
AESHWCYEVQAESSNYPCLVPVKWGGNCQKDRQSPINIVTTKAKVDKKLGRFFFSGYDKKQTWTVQNNGHSVMMLLENKASISGGGLPAPYQAKQLHLHWSDLPYKGSEHSLDGEHFAMEMHIVHEKEKGTSRNVKEAQDPEDEIAVLAFLVEAGTQVNEGFQPLVEALSNIPKPEMSTTMAESSLLDLLPKEEKLRHYFRYLGSLTTPTCDEKVVWTVFREPIQLHREQILAFSQKLYYDKEQTVSMKDNVRPLQQLGQRTVIKS	soluble
MAPYKKSKQKQQKIQKERLRQQQKLDLAEGSVNIPDQDRSRSQDFSMNSTNSSALQDPLQQQPRPVETEKQQKARKERLRYQMKQLGTPCEPVTFSEEITKQLDELYESDDLPDMGLKSVWKRRLGIPMKKLNDWLKQKAFEKCHVSAQTGSCESSKSNSPSESTKSMGSAVLSSSTEPRTPEESHCAPEKSPESTENASPLSSSAEPETPEETSTSMVQIPENFKNKRLSQDLVDKLQELFQINEMPGREISEQWAQQLGISLKTLNNWMQKKRSQKLHPEQAKLKSQRWQETRRLRRAGLNQEKVEKALPYLEAAFKRCQFATQQTMAELKLNTSLQKSQIRLWFSRRRKAPDATHVPAIESDSDDLVELRALFNATEEDDDSDIEILRDTRQEQEEYRNRPEVRAMIERMFGVGGGGGSLDSGIPLQ	not soluble
MIKFYQYKNCTTCKKAAKFLDEYGVSYEPIDIVQHTPTINEFKTIIANTGVEINKLFNTHGAKYRELDLKNKLQTLSDDEKLELLSSDGMLVKRPLAVMGDKITLGFKEDQYKETW	soluble
MKIISFVLPCLLVLAGCSTPSQPEAPKPPQIGMANPASVYCQQKGGTLIPVQTAQGVSNNCKLPGGETIDEWALWRRDHPAGEKLEHHHHHH	not soluble
MSLSAIPPDAIDDESRDTLTGLAGIASASDWLDRNGAKGFVHAMLLGLHRFRSVNLAYGQSAGDIALVELAQRIRIFADEEIGGDTLVARVGGGDFLVASAGKVSRERWQWLAEALARRVSRVLPLRGEELQLAPRIALLRGQPGEGGPALLDRLDQALTTLQQQPARRLQWADGSHLARGRSAARLEADMIGAMARDEIGIVFQPQYAVAGGDIVGVEALARWDHPQLGRIGAETLFALAERGDHVAQVSRHIAGRAMWQAVEWKPVIPLSLNITAEDLGDDRLVEDCRLLLAQTGYPPSSLTVEVTEHALIADFERSAAALEQLARLGVRIALDDFGAGYANFRTLKALPVNTLKLDASLVRDIDRDPRDRAILRAIVAMARALGQKVVVEGIERESQLQVLAAEGCDAFQGFLRSGPIPADQIAALSREGHHHHHH	soluble
TEEPDFTALCQKLKIPDHVRERAWLTWEKVSSVDGVLGGYIQKKKELWGICIFIAAVDLDEMSFTFTELQKNIEISVHKFFNLLKEIDTSTKVDNAMSRLLKKYDVLFALFSKLERTCELIYLTQPSSSISTEINSALVLKVSWITFLLAKGEVLQMEDDLVISFQLMLCVLDYFIKLSPPMLLKEPYKTAVIPINGSPRTPRRGQNRSARIAKQLENDTRIIEVLCKEHECNIDEVKNVYFKNFIPFMNSLGLVTSNGLPEVENLSKRYEEIYLKNKDLDARLFLDHDKTLQTDSIDSFETQR	soluble
MAHHHHHHMKVVEKQLSKKTLKVKKETEKNSTGFMEKKKINKKEKKIYKNNYNNDNIKEEEDILLNQDDFEKKKKKSLENKILLSKKLKEIKLQFKDDDTINNSKKNNWIERLDITSTEYYYLKKTELFGISESREKQLQNITHMNVIQALQKLQELNIKFNRPYDFLADMLKSDIHMEKIRQKILKEHEQAEVRENNKLKRINKKFLKKCGSQKIKSHKEALEKKQNLLKIDQLKKTNNLQNLNVQEFFIKHSKDHDYKAGKITAKKDMKHKKKNFNNKAKKDKGIKNKQIGKKTSINNKRKASSKNSRKSKKMKKKHKHRK	soluble
MKMMDANEIISFIQNSTKSTPVKVYVKGELEGINFGESAKAFINGNTGVVFGEWSEIQTAIEENQSKIEDYVVENDRRNSAIPMLDL	not soluble
MGSDKIHHHHHHMAEELLPLKTVRNPRDLGGYTGFAGRKIKAGLLLRTGTVAAISEEDGNYLRARGVKTIIDLRSPQECRKRPDKKLAGIQNVNIPVNSRDQTKAEASLAELARQYGLDPLAGFRHMVESYRLMVTEEHAQAAFGQVLAYLAETEGGTIYHCSEGKDRTGLVTVFLLTVLGVDPETIRQDYLLSAPYLNVYRAKRDKEARENGESLVQRANLRSLGTVNNEYLDS	not soluble
MGSDKIHHHHHHSCGDKMNKNTGALEFDSIQVNETAHLFGDTAKPACNLTINFAYPVKSTDNKLKDSLNSYFIAACFGEGYIGEKPAQVVKEYTEHYVKEYRTDLEPMYAEDEKNKESEGSIGAWYSYYKGIESHVQLYYKNLLVYRINYNEYTGGAHGIYMTTFLNMDLINLRPLKLDDIFTGDYKEALTDLLWNQLMADKKVTTHEALEDMGYGSTGDIAPTENFYLDKDGITFYYNVYDITPYAMGPVEIKIPYEMMEHMLGSNPIIGEMKSK	not soluble
MGPDTTSERVSEDLMQAVTCLKRVMVGMKSNGTDYVQEQTPSNSTTVICTLVKITGALERCIESNKAMNDVLNGKMKCTTCGATSVGLLSDCHDSATSTTTTVSHRSSEEPPRRKPSAAGGDHDDEELECSSIESRSIRSVSSSVHTSAEDDETNQTMMVPTDVADVINAIVAGTNGSSNSNTTSSSKSPQEEEEEHDLVMKSILSTTTSTSNTKLELSEKLENPLQDTALLDQFLQASLLGQTPTVTPASEENEEDKEQNAVLTSFLQILFANQQAGNAILDAGSSENDGSTSSSQPSPPADPTASLDSLAMFESLLAESMNGNVLDANTSSADQKAAARKRKSTPMKVPKSENGAGYICPMDGCNKVFKEKGSVHRHFVTHIGMRFNCDKCKASYTQKHALMLHQKIHANPDAYQCRGCGTNYTTQNGLRLHRQRNPACMEVSNALEFNTSLNTSISEALSGPLSKNSSPTKQMVSAP	not soluble
MEHFDVAIIGLGPAGSALARKLAGKMQVIALDKKHQCGTEGFSKPCGGLLAPDAQRSFIRDGLTLPVDVIANPQIFSVKTVDVAASLTRNYQRSYININRHAFDLWMKSLIPASVEVYHDSLCRKIWREDDKWHVIFRADGWEQHITARYLVGADGANSMVRRHLYPDHQIRKYVAIQQWFAEKHPVPFYSCIFDNAITDCYSWSISKDGYFIFGGAYPMKDGQTRFTTLKEKMSAFQFQFGKAVKSEKCTVLFPSRWQDFVCGKDNAFLIGEAAGFISASSLEGISYALDSAEILRAVFLKQPEKSNAAYWRATHKLRLKLFGKIVKSRCLTAPALRKWIMRSGVAHIPQLKDYPTRFTSPTSRM	not soluble
VAERFVVTGGNRLSGEVAVGGAKNSVLKLMAATLLAEGTSTITNCPDILDVPLMAEVLRGLGATVELDGDVARITAPDEPKYDADFAAVRQFRASVCVLGPLVGRCKRARVALPGGDAIGSRPLDMHQAGLRQLGAHCNIEHGCVVARAETLRGAEIQLEFPSVGATENILMAAVVAEGVTTIHNAAREPDVVDLCTMLNQMGAQVEGAGSPTMTITGVPRLHPTEHRVIGDRIVAATWGIAAAMTRGDISVAGVDPAHLQLVLHKLHDAGATVTQTDASFRVTQYERPKAVNVATLPFPGFPTDLQPMAIALASIADGTSMITENVFEARFRFVEEMIRLGADARTDGHHAVVRGLPQLSSAPVWCSDIRAGAGLVLAGLVADGDTEVHDVFHIDRGYPLFVENLVSLGAEIERVCC	not soluble
MAHHHHHHMLSTTDGTTSTLSPERTAVIELHTSASYARDTVHRLREYCNSLEATRQQLRRRLSSVPNSHNVSAVALSRARSPSSLSHLHGQAPLPPLAAAAPTLSRPFFTSEYIDPEVDATLQDVDETTALETMIVLHEDGAGTITKRMIDGSQSCISSLAVHSSSPQSQRPAATTASLLAIHSPTPVAENGTSWARQYSPLALRRMKPQQLLSHYLRDTHNAMVIADEPRAHRHSSSLCTNASSSCCVPVVRLGKPMRSASASLWNASDVNMHFPHAVPLAPSLSESPPKQAPSTGRFVVPPATPLDESDAEQLPPQSLPPRPNNHKTTAGASVFVSLAGCTAPGQFAGLQTGVTSSTMGASSRVNSQRFAMKGLRESVSPKEHGTRSRSKSSRSSAGSEALVSGKQTTSSASAAAASAPLWDPTRHSLQSPSPVMLSTSTETSAASALVVSDRLGTPVTTSGCEVGVPGASNDSVHRPRPIGTSLITAVASTSFSPLSAPAPDSEEPQPPAETAVQPHIRSPLRRLHLEAHAVRCDHASSGNRRDLYTDSLHVSGSASPAPSTPRNSEENSGDRCKRSNTTAFLDEEKREASAVSTAGACRVSAQLPVLESDVVSPDGADSFHSKDAAVSPRRSSERTVNFLSPDQVEGSLLPQPQRPTSQRLISPSPPRGVAADSNEQNPRDGNTDLKAVSAESIPKDADIDSTSPRRHLVLPQHRSPVAPPRVVIISKDDESPSPARSSLSRSLHSLPSTLSDGHCDDASDDGDDEDGSLWYSEQF	not soluble
